EC50 data for 2 molecules are collected here from US20240199757A1 (UNIVERSITY OF CHICAGO, published 2024).

Numbering of substitutions follows the chain as printed.

Assay [1] addresses T1, human NT5E expressed on MDA-MB-231 cells (human, UniProt P21589 27-549).
T1 construct: whole, on cells; also called NT5E-expressing MDA-MB-231 cells; CD73
T1 sequence (looked up): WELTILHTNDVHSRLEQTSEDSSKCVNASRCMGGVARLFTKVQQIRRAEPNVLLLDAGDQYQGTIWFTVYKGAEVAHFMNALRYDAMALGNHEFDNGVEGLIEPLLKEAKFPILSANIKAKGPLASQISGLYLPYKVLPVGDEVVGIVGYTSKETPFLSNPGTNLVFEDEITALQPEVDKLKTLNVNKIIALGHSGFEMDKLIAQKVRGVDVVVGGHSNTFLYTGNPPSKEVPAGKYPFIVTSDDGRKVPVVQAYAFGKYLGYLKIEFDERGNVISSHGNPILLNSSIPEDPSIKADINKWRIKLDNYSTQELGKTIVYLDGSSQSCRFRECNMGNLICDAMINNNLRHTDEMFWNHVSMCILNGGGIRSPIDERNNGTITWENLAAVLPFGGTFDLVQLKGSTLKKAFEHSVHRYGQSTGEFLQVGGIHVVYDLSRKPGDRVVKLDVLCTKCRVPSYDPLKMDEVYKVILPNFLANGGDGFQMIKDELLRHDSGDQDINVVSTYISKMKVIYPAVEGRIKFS
Put plainly: flow cytometry on MDA-MB-231 cells, 1 mM ATP. How it is done: Flow cytometry analysis of antibodies binding to human NT5E expressed on MDA-MB-231 cells in ATP-free condition (black) or in 1 mM ATP (red). Top panel: (left) 1780 Fab and (right) 1780 IgG titrations. […] Binding was measured at the indicated range of antibody concentrations and is expressed as mean±st. dev of median fluorescence intensity (MFI) of 1-2 replicates. Data were analyzed using OriginLab, and EC₅₀ values are shown next to the fitted curves.
Human MDA-MB-231 cells and murine 4T1 cells were grown to 90% confluency, detached with 5 mM EDTA for 15 min at 37° C. and then resuspended in 37° C. lx PBS (#10010031, Gibco) supplemented with 1% FBS and 1OpM ZnCl2. Separate working buffers (WB) of PBS and 1% FBS with or without fixed nucleotide concentrations were used throughout all washing steps to maintain constant condition. In 96-well plates (#3799, Costar), 0.2×10⁶ cells were added per well. The plates were spun at 500×g for 5 min and the supernatant was removed. Anti-NT5E antibodies were diluted to the desired concentration in 100 μL WB, added to the cells and the plates were incubated for 20 min at 37° C. Plates were spun and cells were washed twice with WB then spun a second time. Cells were stained with 100 μL of secondary antibody (Alexa Fluor 647 AffiniPure Goat Anti-Human IgG, F(ab′)2 fragment specific, #109-605-006, Jackson, 1:200) dilution and plates were incubated for 20 min at 37° C. Cells were washed twice with WB then fixed on ice with WB supplemented with 0.5% PFA. Fixing solution was removed by centrifugation and cells were resuspended in cold 1× PBS. Samples were analyzed by flow cytometry using CytoFLEX (Beckman Coulter) and mean fluorescence intensity (MFI) data was extracted using FlowJo software. Resulting binding data was plotted using OriginLab.
In general terms: In flow cytometry, cells or beads pass a laser one at a time.

Assay [2] concerns the target T2, Full-length human NT5E (recombinant, in-house) (human, UniProt P21589 27-549).
T2 construct: also called hNT5E; hNT5EWT
T2 sequence: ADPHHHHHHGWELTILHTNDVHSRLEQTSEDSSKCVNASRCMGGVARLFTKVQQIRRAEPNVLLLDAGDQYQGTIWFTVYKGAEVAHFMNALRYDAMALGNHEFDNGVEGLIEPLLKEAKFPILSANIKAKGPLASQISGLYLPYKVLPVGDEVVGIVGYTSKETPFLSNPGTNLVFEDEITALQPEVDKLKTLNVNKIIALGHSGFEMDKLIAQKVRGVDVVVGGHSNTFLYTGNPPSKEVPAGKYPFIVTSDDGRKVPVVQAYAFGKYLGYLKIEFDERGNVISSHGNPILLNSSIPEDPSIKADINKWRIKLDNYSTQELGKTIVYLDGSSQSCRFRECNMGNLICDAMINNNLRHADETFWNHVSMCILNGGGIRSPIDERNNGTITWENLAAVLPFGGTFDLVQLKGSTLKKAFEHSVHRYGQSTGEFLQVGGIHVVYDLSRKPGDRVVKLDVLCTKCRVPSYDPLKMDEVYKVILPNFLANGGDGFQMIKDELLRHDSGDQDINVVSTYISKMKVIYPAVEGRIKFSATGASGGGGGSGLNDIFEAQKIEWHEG
Put plainly: ELISA, biotinylated NT5E on neutravidin plate, 1 mM ATP. How it is done: (§1) (B) Protein ELISA: Protein-based multipoint ELISA was performed to estimate the affinity of the generated Fabs and IgGs to NT5E. The binding of the Fabs and IgGs to the closed form of NT5E were determined in ELISA buffer (HBST) supplemented with 10 μM zinc chloride and 1 mM ATP while the binding of the same to open form of NT5E were determined in ELISA buffer (HBST) without any cofactors. A fixed concentration of the immobilized target (50 nM) on ELISA plate was incubated with 3-fold serial dilutions of the purified Fabs and IgGs starting from 3 μM and 1 μM respectively for 15 min. The plates were washed and were subsequently incubated with a secondary HRP-conjugated anti-protein L monoclonal antibody (#32420, ThermoFisher, 1:6000 dilution). As with phage ELISA, the plates were again washed, developed with TMB substrate and quenched with 1.0 M HCl, and absorbance (Abs450) was determined. To determine the affinity (EC50), the data were fitted with a non-linear, 4-parameter logistic curve in OriginLab.
(In general: An ELISA detects its analyte on a solid surface through an enzyme-linked reagent.)

Assay [3] concerns the target T3, Full-length cynomolgus NT5E (recombinant) (cynomolgus, UniProt P21589 27-549 (human entry)).
T3 construct: also called cNT5E; cyno NT5E
T3 chain: T2 sequence with M209T, T363M, V476I
Described as above. How it is done: as §1

B1: 1789 Fab (Fab, V domains shown)
VH: EVQLVESGGGLVQPGGSLRLSCAASGFNVSYSSIHWVRQAPGKGLEWVASISSSSGYTYYADSVKGRFTISADTSKNTAYLQMNSLRAEDTAVYYCARNYWGWYPFYYFAFDYWGQGTLVTV
VL: DIQMTQSPSSLSASVGDRVTITCRASQSVSSAVAWYQQKPGKAPKLLIYSASSLYSGVPSRFSGSRSGTDFTLTISSLQPEDFATYYCQQGWDYPITFGQGTKVEIKR
Consider B1, for which the EC50 is 53 nM in assay [1], 37 nM in assay [2] and 28 nM in assay [3].

B2: 1789 IgG (antibody, V domains shown)
VH: EVQLVESGGGLVQPGGSLRLSCAASGFNVSYSSIHWVRQAPGKGLEWVASISSSSGYTYYADSVKGRFTISADTSKNTAYLQMNSLRAEDTAVYYCARNYWGWYPFYYFAFDYWGQGTLVTVSS
VL: B1 VL
As for B2, the values for the EC50 in assay [1], in assay [2] and in assay [3] were 9.4 nM, 0.86 nM and 0.57 nM, respectively.

What is called EC50 is the midpoint of the concentration-response curve.
